Data as given in patent US20260152732.

System: T1, DNASE1-LIKE 3, Isoform 1 (wild-type human D1L3), purified
T1 sequence: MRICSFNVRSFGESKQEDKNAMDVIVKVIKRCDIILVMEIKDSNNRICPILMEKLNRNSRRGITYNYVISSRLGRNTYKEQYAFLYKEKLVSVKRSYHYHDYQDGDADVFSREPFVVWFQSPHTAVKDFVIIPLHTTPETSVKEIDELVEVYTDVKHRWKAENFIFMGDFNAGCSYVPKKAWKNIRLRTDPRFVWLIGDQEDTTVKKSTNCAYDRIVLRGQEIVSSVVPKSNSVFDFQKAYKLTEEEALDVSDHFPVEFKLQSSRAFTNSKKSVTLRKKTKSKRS

| Substance | proteolytic cleavage sites (digestion, fragments sequenced by LC and MS) |
| --- | --- |
| plasmin (purified) | plasmin cleaved D1L3 at the following arginine and lysine residues: R22, R29, K45, K47, K74, R81, R92, K107, K176, R212, R226, R227, K250, K259, and K262 |
| trypsin | trypsin cleaved D1L3 at the following arginine and lysine residues: R22, R29, R51, R66, R80, R81, R95, K99, R115, K147, K163, K180, R208, R212, R235, R239, K250, and K262 |
